Changes are numbered by the printed parent chain.
B1: VHH-11 (VHH)
VHH: DVQLVESGGGSVQPGESLRLSCVASGYTVSSSCMAWFRQAPGKEREVVATIVVTSDTTSTFYADSVKGRFTISPDNAKNTLNLQMNSLEPSDTAMYYCAADRKWNVCSRGYRYTPNWANQFTFWGQGTLVTVSS
notes: also called clone 11
B2: VHH-15 (VHH)
VHH: B1 VHH with D1E, S91P, L129Q
notes: also called clone 15
B3: VHH-13 (VHH)
VHH: B1 VHH with D1H, L129Q
notes: also called clone 13
B4: VHH-17 (VHH)
VHH: B1 VHH
notes: also called clone 17
B5: VHH-16 (VHH)
VHH: DVQLVESGGGSVQPGGSLRLSCAASGYTVENSCMAWFRQAPGKEREVVATIVTNNATGTFYADSVKGRFTVSQDNAKNTLNLQMNSLEPEDTAMYYCAADTKWIVCSRGYRYTPNWANQFKYWGQGTQVTVSS
notes: also called clone 16
B6: VHH-20 (VHH)
VHH: B5 VHH with E30D, G58S, Q73H, S86T, Q119H, K121N, Q128L
notes: also called clone 20
B7: VHH-25 (VHH)
VHH: EVQLVESGGGSVQAGGSLRLSCVVSGYTCSVYDMIWYRQPPGKEREFVSLINSNGRTTYADSVKGRFTISQNNAKNTVYLQMNSLKPEDTAMYYCHAACYSPSRLNYWGQGTQVTVSS
notes: also called clone 25
B8: VHH-22 (VHH)
VHH: B7 VHH with E1Q, Q113L
notes: also called clone 22
B9: VHH-23 (VHH)
VHH: HVQLVESGGGSVQTGGSLRLSCAASGYTSSTVYMAWFRQTPGKQREGVAAIYTGGGPTYYADSVKGRFTISQDNAKNTVYLQMNTLKPEDTAMYYCAADRYVYRLVTNWYRPSFYTYWGQGTQVTVSS
notes: also called clone 23
B10: single-domain antibody VHH-25 containing lysin and His6 tags (VHH)
VHH: B7 VHH
notes: also called Nanobody #25-Lys; VHH-25-K1; not shown: C-terminal lysine tag and His6 tag with any linker

These molecules were tested against T1, human αvβ3 integrin ITGAVB3 (human, UniProt P06756 31-992; P05106 27-718, limits assumed) (assay: phage ELISA, coated ITGAVB3, anti-M13-HRP, 490 nm).
T1 construct: Recombinant heterodimer used as immunogen, ELISA coating and SPR ligand; also called A5B3; A5b3
T1 sequence (P06756 31-992 limits assumed, chain 1 of 2): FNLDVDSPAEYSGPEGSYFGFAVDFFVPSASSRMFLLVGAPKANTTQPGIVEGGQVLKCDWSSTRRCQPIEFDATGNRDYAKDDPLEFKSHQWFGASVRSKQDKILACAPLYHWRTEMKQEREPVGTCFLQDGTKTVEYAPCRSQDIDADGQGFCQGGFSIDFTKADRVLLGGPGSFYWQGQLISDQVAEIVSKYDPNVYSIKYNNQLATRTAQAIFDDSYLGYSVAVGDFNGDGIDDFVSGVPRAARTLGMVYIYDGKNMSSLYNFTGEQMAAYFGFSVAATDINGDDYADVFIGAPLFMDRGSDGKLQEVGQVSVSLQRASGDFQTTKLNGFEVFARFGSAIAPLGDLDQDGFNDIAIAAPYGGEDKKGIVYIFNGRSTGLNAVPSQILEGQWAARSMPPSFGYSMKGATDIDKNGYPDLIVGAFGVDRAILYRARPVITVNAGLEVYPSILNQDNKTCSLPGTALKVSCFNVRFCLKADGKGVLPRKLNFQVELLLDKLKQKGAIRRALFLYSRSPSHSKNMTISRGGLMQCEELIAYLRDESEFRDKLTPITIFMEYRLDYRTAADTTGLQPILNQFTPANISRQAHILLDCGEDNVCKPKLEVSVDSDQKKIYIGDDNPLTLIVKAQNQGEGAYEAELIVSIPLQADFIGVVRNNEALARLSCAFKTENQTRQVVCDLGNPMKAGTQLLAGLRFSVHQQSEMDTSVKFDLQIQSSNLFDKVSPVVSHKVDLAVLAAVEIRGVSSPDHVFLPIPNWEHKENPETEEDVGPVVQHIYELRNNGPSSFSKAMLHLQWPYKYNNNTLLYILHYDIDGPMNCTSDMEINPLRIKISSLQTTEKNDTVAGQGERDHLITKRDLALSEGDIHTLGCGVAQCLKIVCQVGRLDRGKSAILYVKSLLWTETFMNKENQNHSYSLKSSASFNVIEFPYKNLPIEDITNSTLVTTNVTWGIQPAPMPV
T1 sequence (P05106 27-718 limits assumed, chain 2 of 2): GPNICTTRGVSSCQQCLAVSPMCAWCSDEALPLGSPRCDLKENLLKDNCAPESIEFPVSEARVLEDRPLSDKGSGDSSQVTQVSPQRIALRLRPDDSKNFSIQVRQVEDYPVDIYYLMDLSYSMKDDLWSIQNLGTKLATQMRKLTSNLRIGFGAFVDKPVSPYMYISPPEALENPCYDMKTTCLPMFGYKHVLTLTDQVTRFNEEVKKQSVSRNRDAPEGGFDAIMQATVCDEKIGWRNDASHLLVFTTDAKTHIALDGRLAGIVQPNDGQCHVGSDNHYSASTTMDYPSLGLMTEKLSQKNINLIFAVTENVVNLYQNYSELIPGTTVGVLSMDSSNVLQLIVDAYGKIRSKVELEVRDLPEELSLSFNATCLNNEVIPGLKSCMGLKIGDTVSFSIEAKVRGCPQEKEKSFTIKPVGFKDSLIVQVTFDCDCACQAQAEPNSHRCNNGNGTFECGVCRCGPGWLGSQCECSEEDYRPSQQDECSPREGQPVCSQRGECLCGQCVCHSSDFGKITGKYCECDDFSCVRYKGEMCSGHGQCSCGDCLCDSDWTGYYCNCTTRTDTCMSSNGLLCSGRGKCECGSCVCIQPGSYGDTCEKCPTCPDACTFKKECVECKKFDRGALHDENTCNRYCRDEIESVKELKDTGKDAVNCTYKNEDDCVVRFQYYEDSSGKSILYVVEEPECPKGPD
Method: Further, in order to perform phage ELISA, 2.5 μg/mL to […] of a target protein and a control protein were coated at 4 degrees C. using a coating buffer, and the wells were washed 3 times with 200 μL washing buffer per well. The wells were blocked with 200 μL PBS-M for two hours at room temperature. The blocking buffer was removed and the plate was washed 6 times with the washing solution. Thereafter, 100 μL of phage solution was added to the washing buffer per well and incubation was executed at room temperature for 1 to 2 hours. Then, washing was performed 6 times with washing buffer. HRP-binding anti-M13 antibody (GE healthcare) was diluted with 1:5,000 blocking buffer. 100 μL of diluted conjugate was added onto each well, and incubation was performed at room temperature for 1 hour, and washing was carried out 6 times with washing buffer. The HRP substrate solution was prepared as follows: A stock solution of OPD was prepared by dissolving 22 mg OPD (Sigma) in 100 mL of […] sodium citrate (pH 4.0), and 36 μL 30% H₂O₂ was added to 21 mL of OPL stock solution immediately before the detection step. 100 μL of substrate solution was added to each well and incubation was performed for 30 minutes at room temperature. Plates were analyzed using a micro plate reader set at 490 nm.
B1 was tested, and the OD490 was 2.07.
Molecule B2 has an OD490 of 1.97.
For B3, the OD490 was 2.01.
With B4 the OD490 was 1.81.
With B5 the OD490 was 2.07.
Molecule B6 has an OD490 of 1.98.
B7 gave an OD490 of 2.03.
For B8, the OD490 was 2.04.
Molecule B9 has an OD490 of 2.04.

These molecules were tested against T1, human αvβ3 integrin ITGAVB3 (assay: phage ELISA, coated ITGAVB3, anti-M13-HRP, 490 nm; helper phage control).
For M13KO7 helper phage, the OD490 was 0.09.

The molecules below were run against T1, human αvβ3 integrin ITGAVB3 (assay: SPR, αvβ3 integrin immobilised on CMDH chip, nanobody as analyte).
Method: (§1) Specifically, a CMDH chip (Carboxymethyl Dextran Hydrogel Surface Sensor Chip, Reichert Technologies) coated with Dextran was mounted on an SPR equipment (Reichert SR7500DC system) to perform immobilization of αᵥβ₃ integrin antigen. Then, an analysis of the affinity of the selected antibody based on the concentration was performed.
Work on B10 yielded a Kd of 4.64 nM, a koff of 0.000802 s⁻¹ and a kon of 173000 M⁻¹ s⁻¹.

The molecules below were run against T1, human αvβ3 integrin ITGAVB3 (assay: ELISA of soluble VHH (TG1 lysate), induced at 30 C, coated ITGAVB3).
B1 showed an OD490 of 0.334.
B2 showed an OD490 of 0.179.
B3 was tested, and the OD490 was 2.
In the case of B4, the OD490 is reported as 0.243.
With B5 the OD490 was 1.75.
Molecule B6 has an OD490 of 0.129.
Molecule B7 has an OD490 of 2.01.
B8 was tested, and the OD490 was 1.98.
With B9 the OD490 was 0.179.

The molecules below were run against T1, human αvβ3 integrin ITGAVB3 (assay: ELISA of soluble VHH (TG1 lysate), induced at 37 C, coated ITGAVB3).
B1 showed an OD490 of 0.64.
B2 showed an OD490 of 0.132.
In the case of B3, the OD490 is reported as 2.
B4 was tested, and the OD490 was 0.191.
B5 showed an OD490 of 1.68.
B6 showed an OD490 of 0.144.
B7 was tested, and the OD490 was 2.03.
B8 gave an OD490 of 1.98.
Molecule B9 has an OD490 of 0.16.

These molecules were tested against T1, human αvβ3 integrin ITGAVB3 (assay: ELISA of soluble VHH, induced at 30 C; coating not given).
For B1, the OD490 was 0.148.
In the case of B2, the OD490 is reported as 0.146.
Molecule B3 has an OD490 of 0.161.
B4 gave an OD490 of 0.118.
With B5 the OD490 was 2.02.
Work on B6 yielded an OD490 of 0.108.
B7 showed an OD490 of 1.05.
In the case of B8, the OD490 is reported as 1.21.
B9 was tested, and the OD490 was 0.141.

The molecules below were run against T1, human αvβ3 integrin ITGAVB3 (assay: ELISA of soluble VHH, induced at 37 C; coating not given).
B1 gave an OD490 of 0.119.
With B2 the OD490 was 0.121.
In the case of B3, the OD490 is reported as 0.187.
B4 showed an OD490 of 0.125.
In the case of B5, the OD490 is reported as 1.02.
B6 showed an OD490 of 0.111.
For B7, the OD490 was 0.193.
B8 was tested, and the OD490 was 0.386.
B9 was tested, and the OD490 was 0.113.

The molecules below were run against T1, human αvβ3 integrin ITGAVB3 (assay: SPR, αvβ3 integrin immobilised on a CMDH chip (Reichert SR7500DC), nanobody as analyte; fitted kd from the table box in the panel; the box prints no unit, s^-1 is from the head of Table 8, where the text prints this cell as 8.02(2)e4).
Method: as §1
B10 was tested, and the koff was 0.000802 s⁻¹.
